Experimental data taken from patent US9062100B2, “Anti-human TROP-2 antibody having anti-tumor activity in vivo” (LIVTECH, INC., dated 2015).
Where no end group is shown, it is not given here.

Assays:
human TROP-2 (hTROP-2) [1] = molecular target: T1, human TROP-2 (hTROP-2) (human); experiment: FACS on PK-59 cells
T1 chain: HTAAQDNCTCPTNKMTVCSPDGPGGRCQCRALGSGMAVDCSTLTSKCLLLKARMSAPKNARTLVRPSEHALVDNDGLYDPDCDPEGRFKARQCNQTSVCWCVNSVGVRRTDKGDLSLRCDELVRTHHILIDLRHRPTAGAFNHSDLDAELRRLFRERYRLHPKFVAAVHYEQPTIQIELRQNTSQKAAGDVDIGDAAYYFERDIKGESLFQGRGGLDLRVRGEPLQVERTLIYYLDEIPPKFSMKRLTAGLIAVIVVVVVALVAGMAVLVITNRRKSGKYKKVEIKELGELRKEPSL

human TROP-2 (hTROP-2) [2] = molecular target: T1, human TROP-2 (hTROP-2); experiment: FACS on BxPC-3 cells
Table 7 peptide No. 1 = molecular target: T2, Table 7 peptide No. 1 (human); experiment: PEPSCAN CLIPS peptide ELISA
T2 peptide: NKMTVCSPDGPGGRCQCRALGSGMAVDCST

Table 7 peptide No. 2 = molecular target: T3, Table 7 peptide No. 2 (human); experiment: PEPSCAN CLIPS peptide ELISA
T3 peptide: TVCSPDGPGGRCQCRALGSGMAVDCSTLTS

Table 7 peptide No. 3 = molecular target: T4, Table 7 peptide No. 3 (human, not fully specified); experiment: PEPSCAN CLIPS peptide ELISA
T4 peptide: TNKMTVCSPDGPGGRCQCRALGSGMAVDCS

Table 7 peptide No. 4 = molecular target: T5, Table 7 peptide No. 4 (human, not fully specified); experiment: PEPSCAN CLIPS peptide ELISA
T5 peptide: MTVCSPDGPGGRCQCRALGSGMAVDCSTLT

Table 7 peptide No. 6 = molecular target: T6, Table 7 peptide No. 6 (human, not fully specified); experiment: PEPSCAN CLIPS peptide ELISA
T6 peptide: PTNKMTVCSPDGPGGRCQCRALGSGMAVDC

Table 7 peptide No. 7 = molecular target: T7, Table 7 peptide No. 7 (human, not fully specified); experiment: PEPSCAN CLIPS peptide ELISA
T7 peptide: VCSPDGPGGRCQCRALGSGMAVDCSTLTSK

Table 7 peptide No. 8 = molecular target: T8, Table 7 peptide No. 8 (human, not fully specified); experiment: PEPSCAN CLIPS peptide ELISA
T8 peptide: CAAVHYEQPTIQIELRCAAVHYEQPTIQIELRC

Table 7 peptide No. 9 = molecular target: T9, Table 7 peptide No. 9 (human, not fully specified); experiment: PEPSCAN CLIPS peptide ELISA
T9 peptide: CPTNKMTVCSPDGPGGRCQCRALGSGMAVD

Table 7 peptide No. 10 = molecular target: T10, Table 7 peptide No. 10 (human); experiment: PEPSCAN CLIPS peptide ELISA
T10 peptide: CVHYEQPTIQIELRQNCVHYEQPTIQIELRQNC

Table 7 peptide No. 11 = molecular target: T11, Table 7 peptide No. 11 (human); experiment: PEPSCAN CLIPS peptide ELISA
T11 peptide: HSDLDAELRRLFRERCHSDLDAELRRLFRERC

Table 7 peptide No. 12 = molecular target: T12, Table 7 peptide No. 12 (human); experiment: PEPSCAN CLIPS peptide ELISA
T12 peptide: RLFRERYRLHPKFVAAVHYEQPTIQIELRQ

Table 7 peptide No. 13 = molecular target: T13, Table 7 peptide No. 13 (human); experiment: PEPSCAN CLIPS peptide ELISA
T13 peptide: AVHYEQPTIQIELRQ

Table 7 peptide No. 14 = molecular target: T14, Table 7 peptide No. 14 (human); experiment: PEPSCAN CLIPS peptide ELISA
T14 peptide: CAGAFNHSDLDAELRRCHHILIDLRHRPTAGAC

Table 7 peptide No. 15 = molecular target: T15, Table 7 peptide No. 15 (human); experiment: PEPSCAN CLIPS peptide ELISA
T15 peptide: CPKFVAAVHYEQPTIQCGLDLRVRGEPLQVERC

Table 7 peptide No. 16 = molecular target: T16, Table 7 peptide No. 16 (human); experiment: PEPSCAN CLIPS peptide ELISA
T16 peptide: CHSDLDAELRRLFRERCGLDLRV

Table 7 peptide No. 17 = molecular target: T17, Table 7 peptide No. 17 (human); experiment: PEPSCAN CLIPS peptide ELISA
T17 peptide: FQGRGGLDLRVRGEP

Table 7 peptide No. 18 = molecular target: T18, Table 7 peptide No. 18 (human); experiment: PEPSCAN CLIPS peptide ELISA
T18 peptide: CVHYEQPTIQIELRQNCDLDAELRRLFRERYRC

Table 7 peptide No. 19 = molecular target: T19, Table 7 peptide No. 19 (human); experiment: PEPSCAN CLIPS peptide ELISA
T19 peptide: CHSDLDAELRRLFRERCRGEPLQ

Table 7 peptide No. 20 = molecular target: T20, Table 7 peptide No. 20 (human); experiment: PEPSCAN CLIPS peptide ELISA
T20 peptide: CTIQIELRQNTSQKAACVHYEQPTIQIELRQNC

Table 7 peptide No. 21 = molecular target: T21, Table 7 peptide No. 21 (human); experiment: PEPSCAN CLIPS peptide ELISA
T21 peptide: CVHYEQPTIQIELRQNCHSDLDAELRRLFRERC

Table 7 peptide No. 22 = molecular target: T22, Table 7 peptide No. 22 (human); experiment: PEPSCAN CLIPS peptide ELISA
T22 peptide: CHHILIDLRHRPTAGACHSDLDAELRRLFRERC

Table 7 peptide No. 23 = molecular target: T23, Table 7 peptide No. 23 (human, not fully specified); experiment: PEPSCAN CLIPS peptide ELISA
T23 peptide: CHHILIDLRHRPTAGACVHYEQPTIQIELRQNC

Table 7 peptide No. 24 = molecular target: T24, Table 7 peptide No. 24 (human, not fully specified); experiment: PEPSCAN CLIPS peptide ELISA
T24 peptide: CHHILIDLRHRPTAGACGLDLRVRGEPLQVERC

Table 7 peptide No. 25 = molecular target: T25, Table 7 peptide No. 25 (human, not fully specified); experiment: PEPSCAN CLIPS peptide ELISA
T25 peptide: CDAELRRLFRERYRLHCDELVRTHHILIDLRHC

Table 7 peptide No. 26 = molecular target: T26, Table 7 peptide No. 26 (human, not fully specified; cysteine pairing not given here); experiment: PEPSCAN CLIPS peptide ELISA
T26 peptide: CVHYEQPTIQIELRQNC

Table 7 peptide No. 27 = molecular target: T27, Table 7 peptide No. 27 (human, not fully specified); experiment: PEPSCAN CLIPS peptide ELISA
T27 peptide: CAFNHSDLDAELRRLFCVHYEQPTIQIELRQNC

Table 7 peptide No. 28 = molecular target: T28, Table 7 peptide No. 28 (human, not fully specified); experiment: PEPSCAN CLIPS peptide ELISA
T28 peptide: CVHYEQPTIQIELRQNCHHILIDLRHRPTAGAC

Table 7 peptide No. 29 = molecular target: T29, Table 7 peptide No. 29 (human, not fully specified); experiment: PEPSCAN CLIPS peptide ELISA
T29 peptide: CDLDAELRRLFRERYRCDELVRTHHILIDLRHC

Table 7 peptide No. 30 = molecular target: T30, Table 7 peptide No. 30 (human, not fully specified); experiment: PEPSCAN CLIPS peptide ELISA
T30 peptide: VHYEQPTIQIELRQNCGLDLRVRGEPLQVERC

Table 7 peptide No. 31 = molecular target: T31, Table 7 peptide No. 31 (human, not fully specified); experiment: PEPSCAN CLIPS peptide ELISA
T31 peptide: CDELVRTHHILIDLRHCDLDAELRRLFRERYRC

Table 7 peptide No. 32 = molecular target: T32, Table 7 peptide No. 32 (human, not fully specified); experiment: PEPSCAN CLIPS peptide ELISA
T32 peptide: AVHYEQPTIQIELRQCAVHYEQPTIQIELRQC

Table 7 peptide No. 33 = molecular target: T33, Table 7 peptide No. 33 (human, not fully specified); experiment: PEPSCAN CLIPS peptide ELISA
T33 peptide: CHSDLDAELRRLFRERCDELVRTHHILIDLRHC

[3] = molecular target: T34, recombinant protein of the extracellular region of hTROP-2 (human); experiment: ELISA of free antibody after equilibration with antigen in solution
T34 sequence: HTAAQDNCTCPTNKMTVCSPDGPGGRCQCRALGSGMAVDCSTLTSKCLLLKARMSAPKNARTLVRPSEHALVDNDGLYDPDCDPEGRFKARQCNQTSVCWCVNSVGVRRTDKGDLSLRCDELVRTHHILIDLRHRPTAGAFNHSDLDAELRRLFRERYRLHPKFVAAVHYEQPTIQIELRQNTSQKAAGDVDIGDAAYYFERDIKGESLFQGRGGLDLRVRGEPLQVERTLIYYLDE

- mean fluorescence intensity, times that with PE-labeled anti-mouse IgG only (human TROP-2 (hTROP-2) [1]): 44 times
- mean fluorescence intensity, times that with PE-labeled anti-mouse IgG only (human TROP-2 (hTROP-2) [2]): 45 times
- binding of K5-70 (Table 7 peptide No. 1): 2740
- binding of K5-70 (Table 7 peptide No. 2): 2600
- binding of K5-70 (Table 7 peptide No. 3): 2560
- binding of K5-70 (Table 7 peptide No. 4): 2400
- binding of K5-70 (Table 7 peptide No. 6): 1390
- binding of K5-70 (Table 7 peptide No. 7): 932
- binding of K5-70 (Table 7 peptide No. 8): 876
- binding of K5-70 (Table 7 peptide No. 9): 839
- binding of K5-70 (Table 7 peptide No. 10): 825
- binding of K5-70 (Table 7 peptide No. 11): 725
- binding of K5-70 (Table 7 peptide No. 12): 687
- binding of K5-70 (Table 7 peptide No. 13): 642
- binding of K5-70 (Table 7 peptide No. 14): 624
- binding of K5-70 (Table 7 peptide No. 15): 579
- binding of K5-70 (Table 7 peptide No. 16): 538
- binding of K5-70 (Table 7 peptide No. 17): 538
- binding of K5-70 (Table 7 peptide No. 18): 524
- binding of K5-70 (Table 7 peptide No. 19): 519
- binding of K5-70 (Table 7 peptide No. 20): 513
- binding of K5-70 (Table 7 peptide No. 21): 511
- binding of K5-70 (Table 7 peptide No. 22): 489
- binding of K5-70 (Table 7 peptide No. 23): 489
- binding of K5-70 (Table 7 peptide No. 24): 488
- binding of K5-70 (Table 7 peptide No. 25): 483
- binding of K5-70 (Table 7 peptide No. 26): 483
- binding of K5-70 (Table 7 peptide No. 27): 478
- binding of K5-70 (Table 7 peptide No. 28): 473
- binding of K5-70 (Table 7 peptide No. 29): 472
- binding of K5-70 (Table 7 peptide No. 30): 470
- binding of K5-70 (Table 7 peptide No. 31): 469
- binding of K5-70 (Table 7 peptide No. 32): 468
- binding of K5-70 (Table 7 peptide No. 33): 466
- Kd [3]: 6.8 pM
B1: anti-hTROP-2 monoclonal antibody K5-70 (antibody, V domains shown)
VH: QVQLQQPGAELVRPGASVKLSCKASGYTFTIYWINWVKQRPGQGLEWIGNIYPSDSYTNYNQKFKDKATLTVDKSSSTAYMQLSSPTSEDSAVYYCTRTSMADYWGQGTTLTVSS
VL: DILLTQSPAILSVSPGERVSFSCRASQSIGTSIHWYQQRTNGSPRLLIKYASESISGIPSRFSGSGSGTDFTLSINSVESEDIADYYCQQSNSWPFTFGSGTKLEIK
